Test results published in patent publication US20180117114A1 (INDIANA UNIVERSITY RESEARCH AND TECHNOLOGY COPORATION, published 2018).

Target: CRMP-2 from wild-type mouse brain lysate (mouse, UniProt O08553 1-572)
Experiment: SPOTS array of neurofibromin 15-mers overlaid with mouse brain lysate, probed with three CRMP-2 antibodies

binding result | Binder
binds | YLQSFGFNGLWRFAG (15-mer on a SPOTS membrane) [SEQ ID NO: 3, neurofibromin C-terminus peptide YLQSFGFNGLWRFAG]
binds | KGYRHPSPAIVARTV (15-mer on a SPOTS membrane) [SEQ ID NO: 2, neurofibromin C-terminus peptide KGYRHPSPAIVARTV]
binds | RVSHGQIKQIIRILS (15-mer on a SPOTS membrane) [SEQ ID NO: 1, neurofibromin C-terminus peptide RVSHGQIKQIIRILS]
